Test results taken from PMC9481161.

Molecular target: His6-MglB (Myxococcus xanthus) (UniProt Q1DB03)
Sequence of UniProt Q1DB03 (Q1DB03 entry or part of it): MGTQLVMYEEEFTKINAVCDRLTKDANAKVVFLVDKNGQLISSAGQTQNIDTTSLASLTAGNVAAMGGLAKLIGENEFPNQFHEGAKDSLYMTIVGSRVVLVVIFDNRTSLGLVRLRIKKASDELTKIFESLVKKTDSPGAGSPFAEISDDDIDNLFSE

MglA GTPase activity, malachite green-based assay; 3 μM MglA-His6 mixed 1:2:2 with MglB and Strep-RomY (against ~18 with MglB alone): 31 GTP/MglA/hr
MglA GTPase activity, regenerative coupled enzyme assay; 3 μM MglA-His6 mixed 1:2:2 with MglB and Strep-RomY (against ~12 with MglB alone): 25 GTP/MglA/hr
Substance: Strep-RomY (natural protein)
